Experimental data reported in patent publication US11180770B2, “HPPD variants and methods of use” (BASF Agricultural Solutions Seed US LLC, priority 2017, dated 2021).

How the values were obtained:
soybean shoots = test: selection of soybean shoots with tembotrione (greening/bleaching); type: in vivo; settings: wild-type soybean shoots treated with tembotrione as selection marker
Text: Soybean transformation was achieved by using methods well known in the art, such as the one described using the Agrobacterium tumefaciens mediated transformation soybean half-seed explants using essentially the method described by Paz et al. (2006), Plant cell Rep. 25:206. Transformants were identified by using the HPPD inhibitor herbicide “tembotrione” as selection marker. The appearance of green shoots was observed, and documented as an indicator of tolerance to the HPPD inhibitor herbicide tembotrione.

HPPD polypeptides [1] = test: coupled HPPD activity assay: turnover and residual turnover in crude extracts; type: biochemical, Pseudomonas fluorescens; settings: for turnover / residual turnover in the presence of Cmpd. 1 compared with a reference HPPD polypeptide, in words: comparison with the reference or parent polypeptide
HPPD polypeptides [2] = test: as above; type: biochemical, Pseudomonas fluorescens; settings: FIG. 2
T0 soybean plants = test: greenhouse spray test, leaf area damage score; type: in vivo; settings: transgenic soybean T0 events, five days after Cmpd. 1 at 300 g AI/ha; for leaf area damage score, 25th percentile: scale 0 (no damage) to 100 (complete bleaching); for leaf area damage score, 75th percentile / leaf area damage score, 90th percentile / leaf area damage score, Median: scale 0-100
Text: Tolerant green shoots were transferred to rooting media or grafted. Rooted plantlets were transferred to the greenhouse after an acclimation period. Plants containing the transgene were then sprayed with HPPD inhibitor herbicides, as for example with mesotrione at a rate of 300-600 g AI/ha, or with Cmpd. 1 (2-chloro-3-(methylsulfanyl)-N-(1-methyl-1H-tetrazol-5-yl)-4-(trifluoromethyl)-benzamide) at a rate of 150 g-300 g AI/ha supplemented with ammonium sulfate and methyl ester rapeseed oil. Five to ten days after the application, the symptoms due to the application of the herbicide were evaluated and compared to the symptoms observed on wild-type plants under the same conditions. For example, T0 soybean plants having a “plant expression cassette”, which includes an HPPD inhibitor tolerant HPPD polypeptide of the present invention, were tested towards the tolerance of Cmpd. 1. Prior greenhouse trials with the transgenic plants, soybean transformants were routinely analyzed for the expression and presence of the transgenes using the ELISA protein detection method (see detailed description under item D and H). Only plants recovering in the selection media and having a detectable HPPD transgene protein expression were used for the herbicide tolerance analysis. A DeVries Tracker Sprayer was calibrated prior to each spraying. The chemical formulation used for Cmpd. 1 was supplemented with ammonium sulfate and methylated rape seed oil. Spray tests were conducted with a concentration, which equals to 300 grams AI per hectare (300 g AI/ha).
In greenhouse trials, independent T0 soybean events containing an exemplary mutant HPPD polypeptide were sprayed with the HPPD inhibitor herbicide Cmpd. 1 (2-chloro-3-(methylsulfanyl)-N-(1-methyl-1H-tetrazol-5-yl)-4-(trifluoromethyl)benzamide) at the rate of 300 grams AI/ha, supplemented with ammonium sulfate and methyl ester rapeseed oil. Five days after the application, the leaf damaged area due to the HPPD inhibitor herbicide is scored in a scale from 0 (no damage) to 100 (complete bleaching). Under those conditions, the wild-type plants were completely bleached and their damage scores were in the 95-100 range.
Table 5 presents the distribution of the HPPD inhibitor herbicide damage score data as percentile for exemplary mutant HPPD inhibitor herbicide tolerant polypeptides (SEQ ID NOs). The percentiles normalize ranks of the damage score from an individual plant in a population. […] The median is the 50th percentile. Half the values had higher damage scores; half had lower damage scores. The value of the 75th and 90th percentile is the damage score where 75% and 90% of the soybean events had lower damage scores, respectively. The difference between the 75th and 25th percentile is called the interquartile range and a marker to quantify scattering in the population. All constructs had only one single cassette insertion in the soybean genome.

Molecule	effect on wild-type soybean shoots (soybean shoots)	Residual turnover (HPPD polypeptides [1]; presence of 100 μM Cmpd. 1, high substrate concentration, changes in absorbance (OD) at 320 nm)	mode of inhibition by HPPD inhibitor herbicides (time-course of inhibition) (HPPD polypeptides [2])	turnover / residual turnover in the presence of Cmpd. 1 compared with a reference HPPD polypeptide, in words (HPPD polypeptides [1])	leaf area damage score, 25th percentile (T0 soybean plants)	leaf area damage score, 75th percentile (T0 soybean plants)	leaf area damage score, 90th percentile (T0 soybean plants)	leaf area damage score, Median (T0 soybean plants)
CS(=O)(=O)c1ccc(C(=O)C2C(=O)CCCC2=O)c(Cl)c1COCC(F)(F)F [tembotrione, 2-[2-chloro-4-(methylsulfonyl)-3-[(2,2,2,-trifluoroethoxy)methyl]benzoyl]-1,3-cyclohexanedione]	entirely bleached							
SEQ ID NO:1 (protein, listed as Pseudomonas fluorescens, 4-hydroxyphenylpyruvate dioxygenase (HPPD; Pseudomonas fluorescens) (1)..(358)) MADLYENPMGLMGFEFIEFASPTPGTLEPIFEIMGFTKVATHRSKNVHLYRQGEINLILNNEPNSIASYFAAEHGPSVCGMAFRVKDSQKAYNRALELGAQPIHIDTGPMELNLPAIKGIGGAPLYLIDRFGEGSSIYDIDFVYLEGVERNPVGAGLKVIDHLTHNVYRGRMVYWANFYEKLFNFREARYFDIKGEYTGLTSKAMSAPDGMIRIPLNEESSKGAGQIEEFLMQFNGEGIQHVAFLTDDLVKTWDALKKIGMRFMTAPPDTYYEMLEGRLPDHGEPVDQLQARGILLDGSSVEGDKRLLLQIFSETLMGPVFFEFIQRKGDDGFGEGNFKALFESIERDQVRRGVLTAD		0.021	slow and tight binding inhibitor					
SEQ ID NO: 69: mutant PfHPPD: 268A 270S 315R 335P 336H 337S 340V 344Q 345M (protein, mutant HPPD polypeptide, mutant PfHPPD: 268A 270S 315R 335P 336H 337S 340V 344Q 345M) MADLYENPMGLMGFEFIEFASPTPGTLEPIFEIMGFTKVATHRSKNVHLYRQGEINLILNNEPNSIASYFAAEHGPSVCGMAFRVKDSQKAYNRALELGAQPIHIDTGPMELNLPAIKGIGGAPLYLIDRFGEGSSIYDIDFVYLEGVERNPVGAGLKVIDHLTHNVYRGRMVYWANFYEKLFNFREARYFDIKGEYTGLTSKAMSAPDGMIRIPLNEESSKGAGQIEEFLMQFNGEGIQHVAFLTDDLVKTWDALKKIGMRFMTAPADSYYEMLEGRLPDHGEPVDQLQARGILLDGSSVEGDKRLLLQIFSERLMGPVFFEFIQRKGDDGFGPHSFKVLFEQMERDQVRRGVLTAD				increase significantly the turnover and the residual turnover	20.0	25.0	42.0	20.0
SEQ ID NO: 68: mutant PfHPPD: 268A 270S 315Q 335P 336H 337S 340V 344Q 345M (protein, mutant HPPD polypeptide, mutant PfHPPD: 268A 270S 315Q 335P 336H 337S 340V 344Q 345M) MADLYENPMGLMGFEFIEFASPTPGTLEPIFEIMGFTKVATHRSKNVHLYRQGEINLILNNEPNSIASYFAAEHGPSVCGMAFRVKDSQKAYNRALELGAQPIHIDTGPMELNLPAIKGIGGAPLYLIDRFGEGSSIYDIDFVYLEGVERNPVGAGLKVIDHLTHNVYRGRMVYWANFYEKLFNFREARYFDIKGEYTGLTSKAMSAPDGMIRIPLNEESSKGAGQIEEFLMQFNGEGIQHVAFLTDDLVKTWDALKKIGMRFMTAPADSYYEMLEGRLPDHGEPVDQLQARGILLDGSSVEGDKRLLLQIFSEQLMGPVFFEFIQRKGDDGFGPHSFKVLFEQMERDQVRRGVLTAD				increase significantly the turnover and the residual turnover	5.0	16.3	20.0	10.0
SEQ ID NO: 70: mutant PfHPPD: 213K 268A 270S 315Q 335P 336H 337S 340V 344Q 345M (protein, mutant HPPD polypeptide, mutant PfHPPD: 213K 268A 270S 315Q 335P 336H 337S 340V 344Q 345M) MADLYENPMGLMGFEFIEFASPTPGTLEPIFEIMGFTKVATHRSKNVHLYRQGEINLILNNEPNSIASYFAAEHGPSVCGMAFRVKDSQKAYNRALELGAQPIHIDTGPMELNLPAIKGIGGAPLYLIDRFGEGSSIYDIDFVYLEGVERNPVGAGLKVIDHLTHNVYRGRMVYWANFYEKLFNFREARYFDIKGEYTGLTSKAMSAPDGMIKIPLNEESSKGAGQIEEFLMQFNGEGIQHVAFLTDDLVKTWDALKKIGMRFMTAPADSYYEMLEGRLPDHGEPVDQLQARGILLDGSSVEGDKRLLLQIFSEQLMGPVFFEFIQRKGDDGFGPHSFKVLFEQMERDQVRRGVLTAD				increase significantly the turnover and the residual turnover	10.0	25.0	35.0	15.0
